Positions count from the first letter of the chain named. Names and notes keep the numbering of the source.
T1: mouse IL-18 binding protein (mouse, UniProt Q9Z0M9 29-193)
T1 sequence (looked up): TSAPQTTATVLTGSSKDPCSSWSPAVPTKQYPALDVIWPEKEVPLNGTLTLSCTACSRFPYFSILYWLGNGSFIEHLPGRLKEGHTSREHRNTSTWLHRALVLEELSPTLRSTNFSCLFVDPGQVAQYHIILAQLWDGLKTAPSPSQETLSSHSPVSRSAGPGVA

T2: mouse IL-18 receptors on PathHunter U2OS mIL18-NF-kb reporter cells (mouse, UniProt Q61098 20-537; Q9Z2B1 20-614)
T2 sequence (looked up) 1: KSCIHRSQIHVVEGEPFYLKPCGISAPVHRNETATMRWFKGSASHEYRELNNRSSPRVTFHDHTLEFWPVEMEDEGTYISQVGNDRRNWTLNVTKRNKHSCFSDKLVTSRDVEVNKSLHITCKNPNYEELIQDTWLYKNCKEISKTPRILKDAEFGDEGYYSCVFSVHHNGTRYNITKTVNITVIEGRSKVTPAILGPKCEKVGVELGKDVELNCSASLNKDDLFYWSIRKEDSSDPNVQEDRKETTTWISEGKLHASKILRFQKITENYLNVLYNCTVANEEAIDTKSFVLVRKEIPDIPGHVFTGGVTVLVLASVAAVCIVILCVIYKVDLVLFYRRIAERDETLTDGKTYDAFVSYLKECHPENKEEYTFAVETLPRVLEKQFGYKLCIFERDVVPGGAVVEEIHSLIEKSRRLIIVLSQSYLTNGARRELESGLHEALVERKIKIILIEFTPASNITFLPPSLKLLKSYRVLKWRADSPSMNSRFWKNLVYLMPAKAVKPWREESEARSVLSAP
T2 sequence (looked up) 2: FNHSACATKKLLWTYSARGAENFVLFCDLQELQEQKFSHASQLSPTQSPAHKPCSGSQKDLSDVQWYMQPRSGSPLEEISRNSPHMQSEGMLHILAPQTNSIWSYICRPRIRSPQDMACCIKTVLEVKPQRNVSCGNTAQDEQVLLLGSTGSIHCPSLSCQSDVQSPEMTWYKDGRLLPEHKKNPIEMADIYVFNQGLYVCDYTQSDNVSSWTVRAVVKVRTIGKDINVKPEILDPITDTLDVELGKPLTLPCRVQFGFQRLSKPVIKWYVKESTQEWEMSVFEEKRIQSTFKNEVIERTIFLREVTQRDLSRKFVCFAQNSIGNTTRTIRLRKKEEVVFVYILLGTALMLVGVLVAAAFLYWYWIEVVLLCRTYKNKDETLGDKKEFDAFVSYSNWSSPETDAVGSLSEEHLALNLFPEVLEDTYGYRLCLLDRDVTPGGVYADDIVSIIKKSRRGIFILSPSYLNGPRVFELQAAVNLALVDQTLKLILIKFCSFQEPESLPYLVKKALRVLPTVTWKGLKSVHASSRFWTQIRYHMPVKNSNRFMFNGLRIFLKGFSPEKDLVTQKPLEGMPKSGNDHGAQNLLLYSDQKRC

T3: mouse IL-18 receptor alpha (mouse, UniProt Q61098 20-326, limits assumed)
T3 construct: also called Mouse IL18Ra; mouse IL-18R alpha
T3 sequence (looked up): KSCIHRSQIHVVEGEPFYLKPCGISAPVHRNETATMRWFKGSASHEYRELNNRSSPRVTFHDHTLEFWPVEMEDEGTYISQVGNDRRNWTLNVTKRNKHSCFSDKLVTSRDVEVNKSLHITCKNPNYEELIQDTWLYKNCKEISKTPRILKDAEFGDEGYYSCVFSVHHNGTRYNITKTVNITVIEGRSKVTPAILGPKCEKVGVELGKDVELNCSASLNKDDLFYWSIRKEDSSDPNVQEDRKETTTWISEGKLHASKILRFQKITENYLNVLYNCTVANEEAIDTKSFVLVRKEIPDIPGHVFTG

T4: human IL-18 binding protein (IL-18BP) (human, UniProt O95998 31-194)
T4 construct: also called hu IL-18BP; hIL18BP
T4 sequence (looked up): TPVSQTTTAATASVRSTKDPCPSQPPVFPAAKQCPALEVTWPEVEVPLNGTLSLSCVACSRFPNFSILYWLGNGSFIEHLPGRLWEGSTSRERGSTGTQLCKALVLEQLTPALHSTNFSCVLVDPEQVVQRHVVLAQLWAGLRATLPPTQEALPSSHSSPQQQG

T5: human IL-18R alpha/beta pair (IL-18Rab) (human, UniProt Q13478 19-329; O95256 20-356)
T5 construct: also called hu IL-18Rab
T5 sequence (looked up) 1: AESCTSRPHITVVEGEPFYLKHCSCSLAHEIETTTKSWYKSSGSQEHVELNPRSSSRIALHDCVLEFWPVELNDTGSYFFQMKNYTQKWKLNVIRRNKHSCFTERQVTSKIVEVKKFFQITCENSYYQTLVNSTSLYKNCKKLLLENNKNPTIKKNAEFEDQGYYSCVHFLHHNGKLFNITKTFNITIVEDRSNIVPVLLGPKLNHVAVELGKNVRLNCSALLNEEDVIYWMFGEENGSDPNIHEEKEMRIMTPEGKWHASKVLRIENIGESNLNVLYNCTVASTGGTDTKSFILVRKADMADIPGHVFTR
T5 sequence (looked up) 2: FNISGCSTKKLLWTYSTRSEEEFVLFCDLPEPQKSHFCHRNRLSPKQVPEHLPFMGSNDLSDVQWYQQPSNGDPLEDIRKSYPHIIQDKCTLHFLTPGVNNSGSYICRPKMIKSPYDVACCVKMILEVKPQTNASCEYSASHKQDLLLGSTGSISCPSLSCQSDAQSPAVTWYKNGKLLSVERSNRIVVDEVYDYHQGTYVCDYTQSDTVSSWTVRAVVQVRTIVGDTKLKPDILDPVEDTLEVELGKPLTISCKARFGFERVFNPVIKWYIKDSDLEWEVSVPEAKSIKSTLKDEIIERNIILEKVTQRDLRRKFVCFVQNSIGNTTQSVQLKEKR

T6: human IL-18 receptor alpha (IL-18Rα) (human, UniProt Q13478 19-329, limits assumed)
T6 construct: also called hu IL-18Ra; IL-18R alpha
T6 sequence (looked up): T5 sequence (looked up) 1

T7: IL-18 receptors on HEK-Blue IL-18 reporter cells (InvivoGen) (UniProt Q13478 19-541; O95256 20-599)
T7 sequence (looked up) 1: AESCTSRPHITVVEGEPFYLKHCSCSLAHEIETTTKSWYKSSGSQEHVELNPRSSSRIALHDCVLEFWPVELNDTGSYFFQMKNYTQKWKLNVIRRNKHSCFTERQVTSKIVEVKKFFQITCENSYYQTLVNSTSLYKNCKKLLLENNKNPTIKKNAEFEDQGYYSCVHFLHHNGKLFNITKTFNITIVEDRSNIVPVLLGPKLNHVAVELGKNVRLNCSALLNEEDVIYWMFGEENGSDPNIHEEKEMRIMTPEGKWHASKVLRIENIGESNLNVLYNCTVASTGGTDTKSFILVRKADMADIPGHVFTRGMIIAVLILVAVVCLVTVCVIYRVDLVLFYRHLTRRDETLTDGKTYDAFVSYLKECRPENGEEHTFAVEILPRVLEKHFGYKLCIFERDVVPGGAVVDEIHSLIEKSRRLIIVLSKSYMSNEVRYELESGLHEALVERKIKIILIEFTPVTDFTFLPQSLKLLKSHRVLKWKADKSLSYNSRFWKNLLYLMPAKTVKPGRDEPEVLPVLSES
T7 sequence (looked up) 2: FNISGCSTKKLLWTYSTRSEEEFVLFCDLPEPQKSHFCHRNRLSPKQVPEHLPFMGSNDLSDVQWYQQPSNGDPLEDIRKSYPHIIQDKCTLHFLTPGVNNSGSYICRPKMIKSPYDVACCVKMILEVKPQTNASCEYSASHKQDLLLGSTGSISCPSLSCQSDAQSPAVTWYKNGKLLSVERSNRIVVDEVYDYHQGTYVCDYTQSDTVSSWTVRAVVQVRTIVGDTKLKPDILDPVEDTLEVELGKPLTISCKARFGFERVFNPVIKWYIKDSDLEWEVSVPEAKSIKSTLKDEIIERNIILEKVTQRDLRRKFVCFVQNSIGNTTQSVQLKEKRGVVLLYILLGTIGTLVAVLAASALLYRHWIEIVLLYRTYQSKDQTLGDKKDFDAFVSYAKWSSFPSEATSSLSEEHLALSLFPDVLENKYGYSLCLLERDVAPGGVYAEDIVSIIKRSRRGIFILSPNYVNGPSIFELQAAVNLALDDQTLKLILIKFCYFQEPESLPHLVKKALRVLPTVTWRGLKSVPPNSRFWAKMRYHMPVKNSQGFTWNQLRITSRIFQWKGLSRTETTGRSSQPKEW

T8: IL-18 receptor (IL-18Rα and IL-18Rβ) (UniProt Q13478 19-541; O95256 20-599, limits assumed)
T8 sequence (looked up) 1: T7 sequence (looked up) 1
T8 sequence (looked up) 2: T7 sequence (looked up) 2

B1: Comparator 5 (ligand)
chain: HFGRLHCTTAVIRNINDQVLFVDKRQPVFEDMTDIDQSASEPQTRLIIYAYGDSRARGKAVTLSVKDSKMSTLSCKNKIISFEEMDPPENIDDIQSDLIFFQKRVPGHNKMEFESSLYEGHFLACQKEDDAFKLILKKKDENGDKSVMFTLTNLHQS
B2: mouse IL-18 G3T, H6K, K52A on monoFc scaffold (Fc fusion, not shown: small tags and cut ends)
chain: NFTRLKSTTAVIRNINDQVLFVDKRQPVFEDMTDIDQSASEPQTRLIIYMYADSEVRGLAVTLSVKDSKMSTLSSKNKIISFEEMDPPENIDDIQSDLIFFQKRVPGHNKMEFESSLYEGHFLACQKEDDAFKLILKKKDENGDKSVMFTLTNLHQSNGGPSVFLFPPKPKDTLMISRTPEVTCVVVDVSHEDPEVKFNWYVDGVEVHNAKTKPREEQYNSTYRVVSVLTVLHQDWLNGKEYKCKVSNKALPAPIEKTISKAKGQPREPQVYTLPPSREEMTKNQVNLTCLVKGFYPSDIAVEWESNGQPENNYKTTPPVLDSDGSFFLNSTLTVDKSRWQQGNVFSCSVMHEALHNHYTQKSLSLS
B3: mouse IL-18 G3V, K52A on monoFc scaffold (Fc fusion, not shown: small tags and cut ends)
chain: B2 chain with T3V, K6H
B4: mouse IL-18 G3V, H6K, K52A on monoFc scaffold (Fc fusion, not shown: small tags and cut ends)
chain: B2 chain with T3V
B5: mouse IL-18 G3T, K52A on monoFc scaffold (Fc fusion, not shown: small tags and cut ends)
chain: B2 chain with K6H
B6: IL-18 variant G3T, M60K (ligand)
chain: YFTKLESKLSVIRNLNDQVLFIDQGNRPLFEDMTDSDMRDNAPRTIFIISMYKDSQPRGKAVTISVKSEKISTLSSENKIISFKEMNPPDNIKDTKSDIIFFQRSVPGHDNKMQFESSSYEGYFLASEKERDLFKLILKKEDELGDRSIMFTVQNED

How the values were obtained:
[1] = target: T1, mouse IL-18 binding protein; experiment: cell-based or functional assay
[2] = target: T2, mouse IL-18 receptors on PathHunter …; experiment: cell-based or functional assay
[3] = target: T1, mouse IL-18 binding protein; experiment: Octet BLI, monoFc scaffold
Experimental: (§1) Octet 96red instrument was used to determine affinities of IL18 proteins to BP or receptors. 5-10 ug/ml analyte proteins were used for loading on Sartorius tips (AHC or SA). […] 120-180 s loading, 200 s association and 800 s dissociation were used for kinetics. 3-7 data points were used to calculate affinities.
(§2) Several mouse variants were next tested for binding affinity to mouse IL-18R alpha and mouse IL-18BP.

[4] = target: T3, mouse IL-18 receptor alpha; experiment: Octet BLI, monoFc scaffold
Experimental: as §1, §2

[5] = target: T4, human IL-18 binding protein (IL-18BP); experiment: Octet BLI
Experimental: as §1

[6] = target: T5, human IL-18R alpha/beta pair (IL-18Rab); experiment: Octet BLI
Experimental: as §1

[7] = target: T6, human IL-18 receptor alpha (IL-18Rα); experiment: Octet BLI
Experimental: as §1

[8] = target: T4, human IL-18 binding protein (IL-18BP); experiment: cell-based or functional assay
[9] = target: T7, IL-18 receptors on HEK-Blue IL-18 …; experiment: cell-based or functional assay
[10] = target: T4, human IL-18 binding protein (IL-18BP); experiment: cell-based or functional assay; remark: listed apart in the source
[11] = target: T7, IL-18 receptors on HEK-Blue IL-18 …; experiment: cell-based or functional assay; remark: listed apart in the source
[12] = target: T4, human IL-18 binding protein (IL-18BP); experiment: cell-based or functional assay; remark: listed apart in the source
[13] = target: T8, IL-18 receptor (IL-18Rα and IL-18Rβ); experiment: cell-based or functional assay

| Binder | mouse IL-18 reporter assay EC50, +Mouse IL-18BP 50 nM [1] | mouse IL-18 reporter assay EC50, without mouse IL-18BP [2] | Kd [3] | Kd [4] | also measured |
| --- | --- | --- | --- | --- | --- |
| B1 | 0.00091 nM | 0.00149 nM |  |  |  |
| B2 | 0.00169 nM | 0.00176 nM | 78 nM | 42.7 nM |  |
| B3 | 0.0364 nM | 0.0007 nM | 2 nM | 8.85 nM |  |
| B4 | 0.00486 nM | 0.0009 nM | 14 nM | 4.85 nM |  |
| B5 | 0.0208 nM | 0.00124 nM | 11 nM | 97 nM |  |
| B6 |  |  |  |  | Kd [5]: 779 nM; Kd [6]: 0.02 nM; Kd [7]: 555 nM; HEK-Blue Activity Assay Ec50 (pM), +300 nM hu IL-18BP [8]: 2.4 pM; HEK-Blue Activity Assay Ec50 (pM), -hu IL-18BP [9]: 0.76 pM; Fold Change (BP/NO BP), 50 nM BP [10]: 0.99 fold; Fold Change (BP/NO BP), 300 nM BP [10]: 3.14 fold; HEK-Blue EC50 pM, +50 nM BP [10]: 0.7 pM; HEK-blue EC50 (pM) + 300 nM BP [10]: 2.4 pM; HEK-Blue EC50 pM, NO BP (50 nM BP run) [11]: 0.71 pM; HEK-Blue EC50 pM, NO BP (300 nM BP run) [11]: 0.76 pM; EC50 pM, IFN gamma expression in PBMCs, + 300 nM BP [12]: 117 pM; EC50 pM, IFN gamma expression in PBMCs, no BP [13]: 214 pM |

From patent US20240182536A1 (MURAL ONCOLOGY, published 2024)
